From the nanobody polyreactivity screen of Harvey et al. (2022)

Test: yeast display, Sf9 membrane polyspecificity reagent, FACS + sequencing; frameworks hold sequencing errors
Procedure, shortened: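 Synthetic nanobody libraries on Saccharomyces cerevisiae BJ5465 were galactose-induced for 36–48 hours, stained 1 hour at 4 °C with 10% biotinylated, detergent-solubilized Sf9 membrane reagent and enriched on streptavidin microbeads. FACS then separated cells into low and high (top ~1%) gates by anti-HA (expression) and streptavidin (reagent binding) fluorescence. Genes were colony-PCR amplified, MiSeq 2 × 250 sequenced and CDR-length filtered. A clone's polyreactivity label is that of its gate of origin.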

Sequence | polyreactivity (PSR sort gate)
QVQLVESGGGLVQAGGSLRLTCAASGSILYYAMGWYRQAPGKERELVAAITRSGTTTYYAASVKGRFTISRDNAKKTVYLQMNSLKPEDTAVYFWAARTSYDYDYWGQGTQVTVSS | high polyreactivity
QVQLVESGGGLVQAGGSLRLTCAASGSITSINAMGWYRQAPGKERELVAAINWSSGSTYYADSVKGRFTISRDYAKNTVYLQKISLKPEDTAVYYCAVDRYFFAGYYGYEYWGQGTQGTVSS | high polyreactivity
QVQLVESGGGLVQAGGSLRLTCAASGSIVDANAMGLYRQAPGKERELVAAISSGDSTSYADSVKGRFTISRDNAKNTVYLQLNSLNPEDTAVYYCNAYVDSQGGFTLKHDYWGQGTQVTVSS | low polyreactivity
QVQLVESGGGLVQAGGSLRLTCAASGSTFDINAMGWYRQAPGKERELVASITFSGGSTYYADSVKGRFTISRDNAKNTVYLQMNSLKPEDTAVYYCAADSSGEYPRWLRYDYWGQGTQVTVSS | low polyreactivity
QVQLVESGGGLVQAGGSLRLTCAASGSTFIRYTMVWYRQAPGKEREFVATITWSTGTTYYADSVKGRFTISRDNAKYSVYLQMNSLKPEDTAVYYCAAVYYYYTGITYDYWGQGTQVTVSS | high polyreactivity
QVQLVESGGGLVQAGGSLRLTCAASGSTFLGYAMGWYRQAPGKERELVAAINLSTSGTYYADSVKGRFTISRDNAKNTVYLQMNSLKPEDTAVYYCAAAYSNINYYYQYYYWGQGTQVTVSS | low polyreactivity
QVQLVESGGGLVQAGGSLRLTCAASGSTFNAYTMGWYRQAPGKERELVAAISSGAGTYYADSVKGRFTISRDNAKYIVYLPMNSLKPEDTAVYYCAADPVGYYDPSVYWGQGTLVTVSS | low polyreactivity
QVQLVESGGGLVQAGGSLRLTCAASGSTFRHNAMGWYRQAPGKETELVAVITDGASTNYADSVKGRFTMSRDNAKNTVYLQLNSLKPEDTAVYYCAAYHRGYYTGREYYYWGQGTQVTVSS | low polyreactivity
QVQLVESGGGLVQAGGSLRLTCAASGSTFRVNVMGWYRQAPGTERELVAAITTSGGSTYYADSVKGRFTISRDNAKNTVYLQMNSLKPEDTAVYYCKTTYPSGWGPDMDYWGQGTQVTVSS | low polyreactivity
QVQLVESGGGLVQAGGSLRLTCAASGSTFSDYAMGWNRQAHGKERELVAGITGGGGTYYADSVKGRFTISRDNAKNTVYLQMNSLKPEDTALYYCAAGRRHGLGYWGQGTLVTVSS | low polyreactivity
QVQLVESGGGLVQAGGSLRLTCAASGSTFYYYTMGWYRQAPWKERELVAAITSAGSTHYADSVKGRFTISRDNAKNNVYLQMNSLKPEDTAVYYCAAKSHWWWRGYYYWGQGTQVTVSS | high polyreactivity
QVQLVESGGGLVQAGGSLRLTCAASGSTLIDNVMGWYRQAPGKERELVASITSSDGTTYADSVKGRFTISRDNAKNSVYLQMNSLKPEDTAVYYFAARPWYGTYNYWGEGTQVTVSS | low polyreactivity
QVQLVESGGGLVQAGGSLRLTCAASGTIFKRYAMRLYRQAPGKERELVATISSRGSCTNYADSLKGRFTISRDIAKNTVYLQMNSLKPQDTAVYYCASEVYRGDFWGQGTQVTVSS | high polyreactivity
QVQLVESGGGLVQAGGSLRLTCAASRRTFEHYAMGWYRQAPVKEREYVAAINSSDGGTYYADSVKGRFTISRDNAKNTVYLQMIRLKPDDSAVYYCAAAEFGSVPGYEMDYWGQGTQVTVSS | low polyreactivity
QVQLVESGGGLVQAGGSLRLTCAATGIIFSYYAKGWYRQAPGKERELVAAISWGGGSTFYADSVKGRFTISRDNAKKTVSLQMKSLKPEDNAVLFCDADYGGDFGMDYCGQGTQVTVSS | low polyreactivity
QVQLVESGGGLVQAGGSLRLTCAATGSTFHLYGMGWYRKAPGKESELVAAITKRGTSTYYADSVKGRFTISRDNAKNTVYLQINSLKPEDTAVYYCADEYTKEQRGFDYWGQGTQVTLSS | high polyreactivity
QVQLVESGGGLVQAGGSLRLTCADSGSILYINAMGRYIQAPGKEREWVAAITYSGGSTYYADSVKGRFTISRDNAKNTVYLQMNSLKPEDTAVYYCAADAVVAGRYDGHDYWGQGTQVTVSS | low polyreactivity
QVQLVESGGGLVQAGGSLRLTCDASGRTFYWNAMGWYRQAPGKERELVAAISNCGTTTYYADSVKGRFTISRDNAKNTVYLQLNSLKPEDTAVYYCAADIWYFDYEYWGQGTQVTLSS | high polyreactivity
QVQLVESGGGLVQAGGSLRLTCDASGSTFYHNAMGWYRQAPGKERELVAAITTSGGSTYYADSVKWRFTISRDNAKNTVYLQMNSLKPEDSAVYYCNVYRPYLAPYDYWGQGTQVTVSS | low polyreactivity
QVQLVESGGGLVQAGGSLRLTSAASGRIIDQNAMGWYRQAPGKERELVAAITSGGSTNYADSVKGRFTISRDNAKNTVYLQMNSLKPEDTAVYYCNSRDASRRYDYDFLERDSWGQGTQVTVSS | low polyreactivity
QVQLVESGGGLVQAGGSLRLTSAASGRTFFRYAMRWYRQAPGKERELVAAISRGGGRTYYADSVKGRFTISRDNAKNTVYLQMNSLKPEDTAVYYCNKTERSGSNYLGQGTQVTVSS | high polyreactivity
QVQLVESGGGLVQAGGSLRLTSADSGRTFYKYAMGWYIQAPGKERELVAANSQSGGSTYYADSVNGRFTISRDNAKNTVYLQMNSLKPEDTAVYYCAARRLPRKERKLYYWGQGSQVTVSS | high polyreactivity

Sequence | polyreactivity (PSR sort gate)
QVQLVESGGGLVQAGGSLRLTSADTGFNFGSYAMGWSRQAHGKEREFVAAISSNGGNTYYADSVKGRFTISRDNAKNTVYLEINSLKPEDTAVSYCAARYPSGTRKWYGYWGQGTQVTVSS | high polyreactivity
QVQLVESGGGLVQAGGSLRVICAASGSIGRYAMGWSRQAPGKERELVAAISSSGGSTYYADSVKGRFTISRDNAKNTVYLQMNSLKPEDTAGYYCAACPGAQEDDYWGPGTQVTVSS | high polyreactivity
QVQLVESGGGLVQAGGSLRVSCAASGFIFGLYAMGWYRQAPGKERELVATISWDGGSTYYADSVKGRFTISRDNAKNTVYLQMNSLKPEDTAVYYCAATYLYRSPYVPMDYWGQGSQVTVSS | low polyreactivity
QVQLVESGGGLVQAGGSLRVSCAASGFIFSYSAMGWYRQAPGKERELVAAISRSGGRTYYADSVKGRFTISRDNAKNTVYLQMNSLKPEDTAVYYCAAPVSLRPIYDYWGHGTQVTVSS | high polyreactivity
QVQLVESGGGLVQAGGSLRVSCAASGFTFPYSAMGWYRQAPGKERELVAAIDWTGGSTYYADSVKGRFTISRDNPKNTVNLQINSLIPDDTAVYYCARDVDYYISSPTPPVVELDYWGQGTQVTVSS | low polyreactivity
QVQLVESGGGLVQAGGSLRVSCAASGIIFDYYVMGWYRQAPGQERELVAAISRSCDRTNYADSVKGRFTISRDNAKNTVYLQMNSLKPEDTAVYYCAARVSIRGGGYEYWGQGTQLTVSS | high polyreactivity
QVQLVESGGGLVQAGGSLRVSCAASGLTFGDYTMGWYRQAPGKERELVAAISTAGGSTYYADSVKGRFTISREHANNTVYLHMNSLKPEDTAVYYCNARRTHTRSHYYYWGQGTQVTVSS | high polyreactivity
QVQLVESGGGLVQAGGSLRVSCAASGRIFASYAMGWYRQAPGKERELVAAISLSGGSTYYADSVKGRFTISRDNAKNTVFLQMNSLKPEDTAVYYCAAKNYRRYRDYYWGQGTQVTVSS | high polyreactivity
QVQLVESGGGLVQAGGSLRVSCAASGRIFKSNAMGWYRPAPGKERELVASSTASGGRTYYADSVKGRFTISRDNAKNTVYLQMNSLKPEDTAVYYCAAGRPFSKYGYWGQGTQVTVTS | high polyreactivity
QVQLVESGGGLVQAGGSLRVSCAASGRILPRYAMGWYRQAPGKEREFVARIDSGGSTNYADSVKGRFTISRDNAKNTVYIQMNSLKPEDTAVYYCAAVGTAQAYAYFTYGYDYWGQGTQVTVSS | low polyreactivity
QVQLVESGGGLVQAGGSLRVSCAASGRTFIKYAMGWYRQAPGKERELVAAISRNGGSTNYADSVKGRFTISRDNAKNTVYFQMNSLKPEDTAVYYCAAVGTVSRTVGYNYWGQGTQVTVSS | high polyreactivity
QVQLVESGGGLVQAGGSLRVSCAASGRTFLSYTMGWYRPAPGKERQLVARISASGGSTYYADSVKGRFTISRDNAKITVYLQMNSLKPEDTAVYYCARVPYYLYYVTRPYDYWGQGTLVTVSS | low polyreactivity
QVQLVESGGGLVQAGGSLRVSCAASGSIFGPYAMGLYRQAPGKERELVATSTYYADSVKGRFTISRDNAKNTVYLQMHRLKPEDTAVYYCAKTPYYSGYGWGYDYWGQGTQVTVSS | low polyreactivity
QVQLVESGGGLVQAGGSLRVSCAASGSIFGTYAMGWYRPAPGKERELVAAITSDGVDTYYADSVKGRFTISRDNAKNTVYLQMNSLKPEDTEVYYCAAEYEGLYGYGYWGQGTQVTVSS | high polyreactivity
QVQLVESGGGLVQAGGSLRVSCAASGSIFKIYAMGWYRLAPGKERELVASITGSGGSTYYADSVKGRFTISRDNAKNTVYLQRNCLKPEDTAVYYCAAAVLGSSKSEVDPDRPEYYYWGQGTQVTVSS | low polyreactivity
QVQLVESGGGLVQAGGSLRVSCAASGSIFLIYGMGWYRQAPGKERELVAAITARGGSTYYADSVKGRFTISRDNAKNTVYLQMNSLKPEDTAVYYCNADGYPDVGAGTYGYWGLGTQVTVSS | low polyreactivity
QVQLVESGGGLVQAGGSLRVSCAASGSIFYTYVMGWYREAPGKERELVAAISGTGGRTYYADSVKGRFTISRDNAKNTVYLQMNSLKPEDTAVYYCAALYNRVNGHYYWGQGTQVTVSS | high polyreactivity
QVQLVESGGGLVQAGGSLRVSCAASGSSFTYNAMGWYRQAPGKERELVASINSRGGTTYYADSVKGRFTISRDNAKNTVYFQMNSLKPEDTAVYYCATDVYRLGEYDYWGQGTQVTVSS | low polyreactivity
QVQLVESGGGLVQAGGSLRVSCAASGSTFRHYAMGWSRQAPGKEWELVAAISSTGGSTYYADSVKGRFTISRDNAKNTVYLQMNSLKPEDTAVYYCAARRLYWGQGTQVTVSS | high polyreactivity
QVQLVESGGGLVQAGGSLRVSCAASGSTFTDYDMVWYRQAPGKERELVAAITSGGSTNYADSVKGRFTISRDNAKNTVYLHMNSLKPEDTAVYYCNAERDSPTLNLDRGWEYDYWGQGTQVTVSS | low polyreactivity
QVQLVESGGGLVQAGGSLRVSCAASGSTFTWYAMGWYRQAPGKVRELVAAIRWSGGNTYYADSVKGRFTISRDNAKNTVFLQMNSLKPEDTAVYYCNAYQYFPRYDYWGQGTQVTVSS | high polyreactivity
